Data published in US20150152171, “Modulation of TLR4-Signaling Pathway” (Rheinisch-Westfalische Technische, published 2015).

Target: hnRNP K full-length (463 aa) (UniProt P61978 P61978:1-463)
Test: competition; 2R competes hnRNP K binding to TAK1 fragments 3, 5.1 and Akt2 fragments 1, 2
Conditions: tags: His
Protocol: To analyze whether recombinant hnRNP K directly interacts with the Akt2 mRNA 3′UTR, UV-crosslinking experiments were performed with the [³²P]-labeled Akt2 mRNA 3′UTR subdivided in two fragments (1 and 2) (FIG. 19, lanes 1-5 and 6-10). Recombinant hnRNP K was bound strongly to both fragments (FIG. 19, lanes 1 and 6) and to the DICE, but not to the TAK1 mRNA 3′UTR fragment 4 that served as negative control (FIG. 19, lanes 11 and 12). Furthermore, it was investigated whether the short RNA consisting of 2 repeats of the DICE (2R) can be used to compete the binding of hnRNP K to the Akt2 mRNA 3′UTR fragments 1 and 2.

**Q.** Does CCCCACCCUCUUCCCCAAGCCCCACCCUCUUCCCCAAG (ssRNA) [2R (two DICE repeats, 38 nt)] bind?
**A.** Result: binds
